Measured values published in the Human Domainome abundance scans (Beltran et al. 2025).

B1: Chromodomain-helicase-DNA-binding protein 4, residues 623 to 675; numbered along this chain, Q14839 (parent)
chain: MIHRILNHSVDKKGHVHYLIKWRDLPYDQASWESEDVEIQDYDLFKQSYWNHR

Variants of: B1
Test: abundance fitness (aPCA) (normalised: wild type 0, dead -1); higher = more abundant; growth selection in yeast, the domain comes from the species named
Details: Homo sapiens

Abundance fitness, by site and new letter:
Q40: L -0.271 | Y -0.504 | H -0.122 | K 0.041 | I -0.252 | P -0.061 | C -0.043 | R -0.161 | W -0.549 | A -0.052 | D -0.047 | T -0.036 | M -0.14 | F -0.548 | S -0.286 | V -0.131 | E -0.061
D28: A 0.116 | Y -0.504 | C -0.025 | R -0.169 | F -0.553 | Q -0.354 | G -0.179 | T -0.098 | L -0.55 | K -0.124 | W -0.333 | I -0.664 | V -0.462 | H -0.139 | N -0.028 | M -0.685
S31: I -0.702 | D -0.854 | H -0.916 | E -0.784 | V -0.61 | Y -0.711 | M -1.01 | Q -0.646 | R -0.656 | A -0.817 | W -0.767 | G -0.885 | N -0.604 | T 0.067 | C -0.551
W32: Q -0.75 | R -0.724 | A -0.997 | S -0.933 | P -0.755 | V -0.732 | K -1.01 | L -0.732 | G -0.88 | D -0.812 | H -0.788 | N -0.776 | T -0.955 | Y -0.909 | M -0.827 | C -0.783 | I -0.71 | F -0.93 | E -0.737
P26: L -0.62 | I -0.907 | V -0.762 | G -0.019 | Y -0.339 | S -0.19 | T -0.392 | Q -0.602 | C -0.701 | A -0.751 | W -0.662 | M -0.761 | K -0.59 | H -0.274 | D -0.163 | R -0.533 | F -0.749 | E -0.562 | N -0.201
Q29: I -1.17 | L -0.239 | A -0.105 | R -0.118 | T -0.702 | P -0.802 | C -0.186 | K 0.101 | D -0.345 | Y -0.493 | E -0.262 | S -0.27 | G -0.608 | H -0.268 | M -0.4 | W -0.589 | N -0.48 | F -0.657
W22: P -0.959 | V -0.55 | T -0.871 | M -0.447 | S -0.806 | Q -0.796 | N -1.13 | R -0.855 | L -0.795
E38: T -0.187 | H -0.324 | L -0.199 | F -0.113 | C -0.144 | S -0.157 | G -0.227 | Q -0.018 | I -0.122 | P -0.2 | Y -0.337 | V -0.217 | M -0.095 | R -0.37 | W -0.257 | D -0.175 | N -0.472
V37: P -0.746 | K 0.182 | G -0.246 | T -0.001 | E -0.039 | A 0.109 | R 0.212 | I -0.217 | F -0.166 | M 0.171 | W -0.985 | L -0.058 | H -0.126 | D -0.262 | Y -0.361 | Q 0.052 | N 0.155 | C 0.117
Y27: D 0.133 | N 0.042 | M -0.248 | R 0.04 | F -0.118 | Q 0.197 | T 0.077 | E -0.241 | W -0.18 | L 0.156 | A -0.003 | H 0.068 | G -0.201 | I 0.21 | C -0.171 | V 0.097 | K -0.013 | P 0.018
R23: T -0.189 | F -0.349 | A -0.207 | L -0.219 | Y -0.139 | M -0.265 | H -0.164 | D -0.591 | S -0.236 | K 0.021 | W -0.183 | C -0.294 | E -0.279 | I -0.161 | Q -0.12 | N -0.5 | P -0.835 | G -0.481
L25: A -0.256 | Y -0.325 | M 0.096 | F -0.254 | S -0.125 | K 0.206 | R 0.059 | N -0.143 | T -0.013 | I -0.344 | E -0.363 | P -0.398 | H -0.195 | V -0.249 | Q -0.045
D24: K -0.461 | Y -0.53 | G -0.115 | T -0.309 | N -0.077 | F -0.423 | W -0.353 | S -0.294 | L -0.535 | M -0.552 | Q -0.439 | V -0.558 | C -0.588 | R -0.487 | I -0.725 | A -0.335 | H -0.142 | E -0.014
E33: I 0.101 | G -0.781 | C 0.13 | R -0.254 | N -0.651 | Y -0.406 | L -0.164 | V 0.036 | P -0.895 | Q -0.152 | H -0.266 | K -0.072 | W -0.566 | D -0.947 | A -0.109 | F -0.528
A30: N -0.347 | Q -0.866 | C -0.136 | I 0.111 | H -0.645 | G -0.977 | P -0.356 | W -0.465 | E -0.717 | L -0.813 | R -0.401 | T -0.653 | V -0.541 | S -0.325 | F -0.586
E35: R -0.882 | F -0.934 | C -0.717 | I -0.765 | G -0.22 | H -0.769 | L -0.833 | K -0.844 | D -0.332 | Q -0.391 | Y -0.757 | V -0.809 | A -0.141 | T -0.45 | P -0.874 | S -0.131 | M -0.874 | W -0.684
D41: K -0.555 | N -0.151 | M -0.79 | H -0.459 | T -0.892 | L -0.846 | E -0.507 | V -0.81 | I -0.929 | S -0.481 | Q -0.191 | R -0.863 | C -0.807 | G -0.283 | F -0.331
S34: F -0.618 | T -0.377 | N -0.137 | G -0.106 | K 0.086 | Y -0.731 | A -0.103 | P -0.022 | R -0.081 | I -0.852 | Q -0.111 | M -0.441 | H 0.136 | L -0.411 | E -0.004 | C 0.155
I39: V -0.722 | K -0.879 | W -0.818 | M -0.462 | S -0.745 | R -0.756 | Q -0.764 | C -0.753 | D -0.992 | L 0.026 | A -0.805 | T -0.72 | N -1.06 | H -0.39 | G -0.847 | P -0.897 | Y -0.195 | F 0.139 | E -1.02
D36: H -0.105 | Q -0.415 | L -0.402 | P -0.909 | G -0.299 | E -0.102 | M -0.372 | F -0.267 | N 0.134 | T -0.2 | V -0.833 | W -0.37 | A -0.455 | K -0.073 | I -0.915 | R -0.255 | C -0.363 | S -0.079
